B1: TPR t1 (parent)
chain: GACCAAUCUGCCCUCAGAGCUCGAGAACAUCUUCGGAUGCAGAGGAGGCAGGCUUCGGUGGCGCGAUAGCGCCAACGUCCUCAACCUCCAAUGCAUCCCACCACAUGAUGAUGCCUGAAGAGCCUUGGUUUUUUG

Experimental findings from the RNAGym collection of RNA variant scans (doi:10.1073/pnas.2313332121) are described below.

Variants of B1 are the subject of this data set. Put plainly: polymerase ribozyme fitness, log enrichment relative to wild type (log ratio); higher = more active; in vitro selection for triplet polymerase activity. In a few lines:
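A heterodimeric triplet polymerase ribozyme had each of its subunits mutagenized by PCR into a library, which was transcribed. One round of in vitro selection, done in triplicate, annealed each library with a biotinylated primer, its partner subunit and triplets, then incubated it frozen at −7 °C before gel excision of extended constructs, streptavidin-bead capture and RT-PCR. Fitness is the logarithm of genotype enrichment relative to wild-type enrichment, based on Illumina sequencing of inputs and outputs and inverse-variance-weighted replicate averages. A base-2 logarithm is used, and genotypes were kept only with ≥10 input reads and ≥1 read per output.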
In the case of A26G G60U, the “polymerase ribozyme fitness (log ratio)” value is -2.17.
Take C4G C12A G45A G71U A100U U106A: the “polymerase ribozyme fitness (log ratio)” value is -2.68.
Take C15A C97A G120A U130A: the “polymerase ribozyme fitness (log ratio)” value was -4.97.
For C76A C79U A90U A119C G120U, the “polymerase ribozyme fitness (log ratio)” value is -1.56.
With A2G G120A U129C G135U, the “polymerase ribozyme fitness (log ratio)” value is -1.81.
As to A5C C15U G60C U96A, the “polymerase ribozyme fitness (log ratio)” value is -2.98.
Turning to C12U A46U C53U C79A A83U U130A, the “polymerase ribozyme fitness (log ratio)” value was -4.07.
The value for C34A G63U G120A was -4.37.
Regarding U14A A37G G120A, the “polymerase ribozyme fitness (log ratio)” value was -0.881.
For the variant U38C C56U C98U G110U, the “polymerase ribozyme fitness (log ratio)” value was -5.51.
As for A29C G61C U87A, the “polymerase ribozyme fitness (log ratio)” value was -4.41.
C62G A100U G120U: the “polymerase ribozyme fitness (log ratio)” value was -3.32.
As to U55C A90G C94G G110C U116A A121G, the “polymerase ribozyme fitness (log ratio)” value is -5.82.
For U87G C99U the value was -3.22; for C15A G39C C114G, -4.44.
Turning to U9A C62A C86A C98U, the “polymerase ribozyme fitness (log ratio)” value is -2.77.
The value for C4U G10A U21A G44A A83U was -1.59; that for G10U A46C C70G C94U U133A G135U was -4.06.
For the variant G10A G42A A43U C64U, the “polymerase ribozyme fitness (log ratio)” value is -1.45.
As to A43U A50C C73U U78C C94G, the “polymerase ribozyme fitness (log ratio)” value is -4.28.
As to C8A C15A A29U G42U, the “polymerase ribozyme fitness (log ratio)” value was -3.65.
For the variant A6C G48U C72U U87C G110U, the “polymerase ribozyme fitness (log ratio)” value is -2.52.
On to U9G C34A C73A G120C, for which the “polymerase ribozyme fitness (log ratio)” value is -0.727.
For C4G C12G G36C G44C C97G the value was -2.86; for G17A C72G C124G, -0.994.
The value for C15G U109A G120U C123A was -6.64; that for G42U U54A A91U A121C C124A was 0.144; that for A29G U131C was -1.02.
G61A G110A C114G: the “polymerase ribozyme fitness (log ratio)” value is -6.32.
As for C64A U112C, the “polymerase ribozyme fitness (log ratio)” value was -4.53.
For the variant C20U A90U G110U, the “polymerase ribozyme fitness (log ratio)” value is -4.33.
Consider G44C C64U, for which the “polymerase ribozyme fitness (log ratio)” value is -0.652.
For C34A A37C A118G the value was -2.59.
On to G48A G51U, for which the “polymerase ribozyme fitness (log ratio)” value was -2.61.
On to C40A G61U, for which the “polymerase ribozyme fitness (log ratio)” value was -1.59.
On to A50U G60A C123G, for which the “polymerase ribozyme fitness (log ratio)” value was 1.09.
Regarding G52U A84C G93C, the “polymerase ribozyme fitness (log ratio)” value was -2.23.
Take C22U U55G C72A U106A: the “polymerase ribozyme fitness (log ratio)” value is -3.49.
As to G57U G71U U87G, the “polymerase ribozyme fitness (log ratio)” value was -0.217.
Consider U30A G52C, for which the “polymerase ribozyme fitness (log ratio)” value is -5.66.
For U54A C56A the value was 0.502; for C62U U78C C85A U92C C97A, -6.24.
With C15A U106G, the “polymerase ribozyme fitness (log ratio)” value was -3.3.
C8G C20A U96A U131G: the “polymerase ribozyme fitness (log ratio)” value is -3.68.
Turning to C72U C76G, the “polymerase ribozyme fitness (log ratio)” value is -0.525.
C11G A37U G60U G77C: the “polymerase ribozyme fitness (log ratio)” value was -1.22.
For the variant C8G A37U A74C C88G G110A, the “polymerase ribozyme fitness (log ratio)” value is -3.12.
For G36A A46U G60C C124U the value was -0.384.
Take A18G U54A C62U C88G A111C G113C U125A: the “polymerase ribozyme fitness (log ratio)” value is -3.53.
In the case of C12U G17A U59A G61C C124A, the “polymerase ribozyme fitness (log ratio)” value was -1.65.
As to G35U G61A, the “polymerase ribozyme fitness (log ratio)” value is -4.27.
With C53U C73G C89U U112G, the “polymerase ribozyme fitness (log ratio)” value was -1.
For the variant C8A C49U A74C U78C C85A A91U C94U, the “polymerase ribozyme fitness (log ratio)” value was -3.74.
For C88U C89G U92G the value was -2.44; for G45U C53A C72A C89G, -1.62; for C56U C101A, -1.79.
Consider A5C C12A G61U G113C, for which the “polymerase ribozyme fitness (log ratio)” value was -2.74.
The value for C79U was -0.19.
A6C A50U G58A G60C C70U: the “polymerase ribozyme fitness (log ratio)” value is -3.42.
For C49U G52C U55C the value was -1.55.
Turning to G77A C123G, the “polymerase ribozyme fitness (log ratio)” value is 1.16.
For the variant U92C A121C, the “polymerase ribozyme fitness (log ratio)” value was 1.53.
As to C70A C101U U106C, the “polymerase ribozyme fitness (log ratio)” value is -1.6.
Take C8G C115U: the “polymerase ribozyme fitness (log ratio)” value is -0.75.
On to C49G G51A G61C C94U, for which the “polymerase ribozyme fitness (log ratio)” value was -3.22.
Take A46U G120A G135A: the “polymerase ribozyme fitness (log ratio)” value was -0.18.
The value for G39C C115A was -1.12; that for C49U U129A was -1.47.
For the variant G48U G93A G120A, the “polymerase ribozyme fitness (log ratio)” value was -0.388.
Regarding A41G C62A, the “polymerase ribozyme fitness (log ratio)” value is -1.85.
For G110C G113A, the “polymerase ribozyme fitness (log ratio)” value is -6.42.
In the case of G52C U54G G69A U87C A100U, the “polymerase ribozyme fitness (log ratio)” value is -6.57.
For the variant U14C C72U U78G C115U U116C, the “polymerase ribozyme fitness (log ratio)” value was -3.05.
Consider G23U A26C A43U G93A G117C, for which the “polymerase ribozyme fitness (log ratio)” value is -7.04.
Consider U7C G17C A121G, for which the “polymerase ribozyme fitness (log ratio)” value was -1.82.
Take G48A C72U C101G U133A: the “polymerase ribozyme fitness (log ratio)” value was -2.79.
In the case of C13G C72U U132A, the “polymerase ribozyme fitness (log ratio)” value is -2.7.
Turning to G17U A37U G47U, the “polymerase ribozyme fitness (log ratio)” value was -5.29.
The value for A2U U106G was -4.83; that for C11A C22G G48A A119G was -3.23.
With G10A A37U C53A C56G C85U G110U, the “polymerase ribozyme fitness (log ratio)” value is -2.81.
Regarding C8A G93U U106A, the “polymerase ribozyme fitness (log ratio)” value was -0.449.
With A18G C82A, the “polymerase ribozyme fitness (log ratio)” value was -4.16.
For C11U U59A C73A A91G A118U the value was -2.19.
